Measured values taken from the supplement of paper PMC12042874.
± gives the uncertainty stated by the source.

assay: amyloid nucleation score (Sup35N fusion, yeast selection) (log enrichment); library NNK2; higher = more nucleation; inactive = no reads after selection
How it was run: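 Peptides of 20 random codons, each fused to Sup35N, were expressed in psi-negative yeast. Cells were induced with 100 μM copper sulfate for 24 hours and grown 7 days at 30°C on medium lacking adenine and uracil, and plasmid inserts before and after selection were Illumina-sequenced. Nucleation scores are DiMSum log enrichments of output over input reads, centred on the mode score of non-aggregating sequences, and sequences under 100 input reads were excluded.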

Row | Substance | amyloid nucleation score
1 | VRSMTELGPRLVAGK | 1.45 ± 0.33
2 | VRTWESIVCCI | 4.14 ± 0.051
3 | VSCTWFGS | 0.797 ± 0.28
4 | VSDSNFNNGRYWLSVWRDVV | 4.25 ± 0.067
5 | VSFRYCLYYYTENVVHMIVK | -1.85 ± 0.54
6 | VSFTARSRHVDGGLSS | 1.04 ± 0.32
7 | VSKRNDLQTSFLYMMHLALQ | -0.536 ± 1
8 | VSLGDYASAGFLMWIRLHVW | -0.03 ± 0.56
9 | VSLINFFVNL | 8.418 ± 0.056
10 | VSLIVYKGHKRGWVYRVSRR | 0.42 ± 0.65
11 | VSLLFTPTNEYIWGTPLALR | inactive
12 | VSLMKYQVELGNWKEPTCLG | 0.14 ± 0.56
13 | VSLSERLTHLLCIRF | 0.343 ± 0.64
14 | VSLSLC | -0.288 ± 0.5
15 | VSQSDMDLHWLVYRVYWYVF | -0.893 ± 0.44
16 | VSSTSLNSKDQWCCCERGSP | 0.619 ± 0.64
17 | VSTIIWCIR | 5.143 ± 0.047
18 | VSVARSSFARKDYCEFFRPG | 1.17 ± 0.28
19 | VSVDHSDFRLNAVSE | 1 ± 0.17
20 | VSVGACTHTLYKVRALSQGV | 0.486 ± 0.26
21 | VSWTPWESIFSGVMV | -0.568 ± 0.61
22 | VSYVYYSM | -0.242 ± 1.1
23 | VTFYGGAYSENYLVRCYALN | 4.47 ± 0.057
24 | VTMYPFRRIVGRQQLMAWLY | 0.973 ± 0.38
25 | VTNCNPDRW | -0.149 ± 0.63

Row | Substance | amyloid nucleation score
26 | VTNVCGWRTEGWYDPGSAKT | 1.13 ± 0.33
27 | VTNVSQISNSRNVMERSIMF | -1.2 ± 0.41
28 | VTNYVEFCTGFRICGVSLPC | 8.387 ± 0.036
29 | VTPTEGCSVSHVRSRSLKNA | -0.511 ± 0.49
30 | VTPTFCETLVKPLHALHTNC | -1.22 ± 0.62
31 | VTRHLVVLNKYKWLGRLSTI | -1.04 ± 0.76
32 | VTRSLLLCHFSTCCFSALTW | -0.086 ± 0.32
33 | VTSLHSYSMMFPPMWMSNQS | 1.54 ± 0.32
34 | VTSYHFRMSCAVREALSSRY | 4.26 ± 0.055
35 | VTTMRNSFKFYAIVMGLCSF | 0.272 ± 0.65
36 | VTVLTGVG | 4.79 ± 0.058
37 | VTVMTRLDFSTRSSATKPHG | 5.667 ± 0.044
38 | VTYDCL | inactive
39 | VTYFNVYSYCKYSAKGRCAS | 6.22 ± 0.081
40 | VVFNFFCPNHGAVTMFSCFH | 8.838 ± 0.03
41 | VVFVCN | inactive
42 | VVILFVLGLVNPELS | 0.649 ± 0.55
43 | VVKDLRT | 1.91 ± 0.48
44 | VVLPFGMHAWYTKDNVEISS | 0.181 ± 0.15
45 | VVLSCFLQRAPQVYSLF | -0.821 ± 1.1
46 | VVMHQSAVCYEHEMTLVRRF | 0.027 ± 1
47 | VVMMSGYILTSTSLVYYHFY | 0.005 ± 0.54
48 | VVNSGICSYRCFTVGQVTYK | -0.553 ± 0.55
49 | VVNTVYSFSE | 0.332 ± 0.35
50 | VVPYS | inactive

Row | Substance | amyloid nucleation score
51 | VVQGVIFNGDMLNRGSLGKI | -0.129 ± 0.79
52 | VVRGRSGLCNMFWCDRQRRL | -0.63 ± 0.34
53 | VVSCGYARHDVGDFWLRDCR | 0.481 ± 0.38
54 | VVSFSVRSIPCSRVSFMAFS | -0.304 ± 0.54
55 | VVSPRVTGNME | 0.302 ± 0.23
56 | VVSVFSSYVRQCCYGGWEV | 6.67 ± 0.077
57 | VVVDGSLRVNLVSQGDPNNV | 1.07 ± 0.25
58 | VVVHSTLLGFWIIF | inactive
59 | VVVIGNFVSPRDIRFISMYT | 8.118 ± 0.047
60 | VVWWGVNR | 0.091 ± 0.38
61 | VVYSSSFVAGLYDSMCWMWG | 1.49 ± 0.24
62 | VWDHVAGARALTWLRMLLKQ | inactive
63 | VWDLMLKKAFTNSSNCYSVA | 1.19 ± 0.19
64 | VWEVAMISTINSAGHLCLGD | -0.109 ± 0.76
65 | VWGFVSGIESMCGSKAPNGG | -0.158 ± 0.33
66 | VWHLLRKSFSFR | 0.619 ± 0.8
67 | VWKVVKIRAL | inactive
68 | VWMDIRSYLVGGLLTAVPRD | 0.481 ± 0.2
69 | VWPLCGCAWRWSGKWGGTRW | 6.41 ± 0.077
70 | VWVCSRTGQSQYIISYTALW | 1.65 ± 0.2
71 | VWWFIYVLGVVSTDAKVSPS | inactive
72 | VYALCMGLAWKGLDYHKGER | 5.68 ± 0.07
73 | VYCSSCSVFLLCVKNLSWCV | 8.658 ± 0.053
74 | VYEVNGLSAGRMMSICNRRN | -0.467 ± 0.44
75 | VYFFCYSFTYEEGMAIRKSC | -1 ± 0.78

Row | Substance | amyloid nucleation score
76 | VYFSCFSLWSSYDVIGRWSC | 7.446 ± 0.036
77 | VYGFP | 7.112 ± 0.048
78 | VYLDWFYWPDTIHG | 4.87 ± 0.075
79 | VYLFGGIRFDR | 4.04 ± 0.049
80 | VYLINRWVYPWEFIVHIIRV | inactive
81 | VYMGSDL | 6.07 ± 0.072
82 | VYQYICFRVYGVVHWVGSSA | 1.4 ± 0.28
83 | VYRQNLNLNME | 0.189 ± 0.64
84 | VYSANSWH | -0.364 ± 0.3
85 | VYVIFPPLSTSLPVSMSYNL | -0.548 ± 1.1
86 | VYYLCVWF | -1.18 ± 0.41
87 | VYYLVCGL | 0.147 ± 0.38
88 | VYYVSRLLTFFPVSSNPCGS | 0.566 ± 0.56
89 | WAFNPTELLVDAQKSRGRIW | inactive
90 | WANFWSGWKVTLVCCCKIVA | 3.7 ± 0.078
91 | WAVSATWWNFLSVYRKLSDL | -0.095 ± 1.1
92 | WAYAVNPTCYNFVGTGGSCS | 2.44 ± 0.11
93 | WCLSLPVRDSTVCLSTVLSG | 0.294 ± 0.29
94 | WCMLRYCVESGLSVSFMHFS | -0.626 ± 0.63
95 | WCSNR | 0.153 ± 0.45
96 | WDALGNVRRAMWVPS | 0.048 ± 0.41
97 | WDGNYSSKVCFTQLRMSWCL | 1.75 ± 0.27
98 | WDGYGVYFQTQAKVR | 0.102 ± 0.63
99 | WDRTTDSSFQVRKYQSENFL | 0.092 ± 1.1
100 | WDSIVDVSSKIAFFRMNDSS | -1.41 ± 0.62

Row | Substance | amyloid nucleation score
101 | WDTSGRFVLNWVFWEGHPKM | 0.768 ± 0.56
102 | WFAKRW | inactive
103 | WFAWYCSSRYRHRR | 3.57 ± 0.087
104 | WFDGDQDSNRQTVPIPQLPP | 0.549 ± 0.45
105 | WFFYWMYRGYSINMIFEMLD | -2.15 ± 0.49
106 | WFGYIYFHTTYSFFGHPAAT | -1.5 ± 1.1
107 | WFHGTGSQHS | inactive
108 | WFLHRGSIGYQTAFFCSYLP | -0.208 ± 1.1
109 | WFQLRMVLTGEFEPVLERSR | 2.86 ± 0.11
110 | WFSLFLPPVSSKRQPADEMA | -0.317 ± 1.1
111 | WFYTYSLFGFVVNIVFTYPL | -0.176 ± 0.36
112 | WGCSHKLTCVGARHLVLD | 2.46 ± 0.17
113 | WGFTLWKLWRV | 0.676 ± 0.15
114 | WGITGLVCV | -0.674 ± 0.76
115 | WGNNSYSPFASKYAVSQDMD | -0.902 ± 0.62
116 | WHGTDHKIVGQDIVVVYSAV | 0.491 ± 0.6
117 | WHLCFISHTLRGMRTLWSIR | -0.829 ± 1.1
118 | WHMSWLK | 0.114 ± 0.63
119 | WHNITWYMFGPFMPGGEMLM | 0.446 ± 0.5
120 | WIAGLCPVDMADL | 0.644 ± 0.23
121 | WIARC | -0.149 ± 0.42
122 | WIDGVFTIVSFYMELEGIRV | inactive
123 | WIHMSFGRLNRYMVRMRGRM | -0.71 ± 1
124 | WILYLRMNYWKRTCYHAIGM | -0.214 ± 0.22
125 | WINLSRFFSLGKFRIAIRYY | -1.04 ± 1.1

Row | Substance | amyloid nucleation score
126 | WIVSGKLTTTFSLRR | 5.15 ± 0.058
127 | WKVCLVYDKTFWHVEVEGES | 0.042 ± 0.8
128 | WLFDGGFSVKWPDRVSLARV | -1.14 ± 1
129 | WLKVLG | 4.571 ± 0.028
130 | WLLWNSECIANCAFTRYSMF | -0.079 ± 0.33
131 | WLMGVRG | -1.01 ± 0.64
132 | WLNYLGFISFRICH | -1.66 ± 0.41
133 | WLTSS | -0.173 ± 0.54
134 | WLVRLVIGGFTQSGMWLTEI | 1.06 ± 0.16
135 | WLYCVVTS | 1.63 ± 0.42
136 | WLYSIDYNFLKRVIGYCYRN | inactive
137 | WMSMKFCFIFLPFYKSSVCM | 1.91 ± 0.18
138 | WNKLSLA | 0.443 ± 0.49
139 | WNMMPRASEQFYYRL | inactive
140 | WNVWVYLAAAVSGGGPTCVS | 4.72 ± 0.076
141 | WPRFTCCPTYYICIAQSPGQ | 9.807 ± 0.035
142 | WPTSSTYQHWFD | 0.606 ± 0.41
143 | WPVGLFKSGAISAV | -0.475 ± 0.55
144 | WPYRMMR | 0.554 ± 0.74
145 | WRGSLTSPAPGET | 1.87 ± 0.17
146 | WRPLWSRAIFGS | inactive
147 | WSCQESIVRSRDDYSRFRCG | 3.42 ± 0.13
148 | WSFHRR | -0.552 ± 0.36
149 | WSKVMCQWFSDIYSVTNFGC | 2.76 ± 0.085
150 | WSLDSYSMTAVF | -0.467 ± 0.39

Row | Substance | amyloid nucleation score
151 | WSLKKLITDRFGSSCSAALH | inactive
152 | WSNGR | 0.329 ± 0.44
153 | WSYLVLSPMRRNRVRMVHII | -0.517 ± 0.63
154 | WSYQYRLPILTTFSDFVWRK | -0.339 ± 0.28
155 | WTGHMPMSLVHLMIGWHGHY | 0.637 ± 0.62
156 | WTGSFRMSRQHMWNSTSFQM | -0.215 ± 0.5
157 | WTNVYAIVFR | 4.65 ± 0.044
158 | WTRCPQSRYHVLVRVYSYWA | 0.193 ± 0.27
159 | WVCHVNMRSEYMDIIMEGTN | inactive
160 | WVCSFHYAEYSLRVIAARFP | 0.081 ± 0.8
161 | WVGYLRPKKESLCLGFEDSK | 3.04 ± 0.12
162 | WVIVRLIITTDVQCNYVFLP | 0.248 ± 0.38
163 | WVSRTNELFGPDRLWIDLWH | -0.01 ± 1
164 | WVTTNMCYTHQFMFGANLVV | 0.276 ± 1
165 | WVYDVQSCIMTPMSGYWFIL | -0.476 ± 0.36
166 | WVYKWIWRLFDGFHHQLMLS | inactive
167 | WWFYAYVYWRW | -0.403 ± 0.43
168 | WWGGINSVLVTDEWLVRLGK | -0.166 ± 0.19
169 | WWLSGA | 0.898 ± 0.35
170 | WWNEYSH | -1.01 ± 0.39
171 | WYAAGLKNR | -0.418 ± 1
172 | WYALARCYCDGPFSGGWFRM | -0.022 ± 0.27
173 | WYIKF | 1.54 ± 0.3
